We go through one molecule from patent US20180022815A1.

The test addresses BCMA and CD138 on H929 cells. In words: flow cytometry on H929 cells, sheep antihuman Ig-FITC secondary.

B1: bi-specific CD138/BCMA-IgG (dual CD138 scFv - 218S linker - BCMA scFv fused with a human IgG Fc) (bispecific antibody, not shown: a dimerising Fc or GST)
chain: DIQMTQSTSSLSASLGDRVTISCSASQGINNYLNWYQQKPDGTVELLIYYTSTLQSGVPSRFSGSGSGTDYSLTISNLEPEDIGTYYCQQYSKLPRTFGGGTKLEIKGSTSGSGKPGSSEGSTKGQVQLQQSGSELMMPGASVKISCKATGYTFSNYWIEWVKQRPGHGLEWIGEILPGTGRTIYNEKFKGKATFTADISSNTVQMQLSSLTSEDSAVYYCARRDYYGNFYYAMDYWGQGTSVTVSSGSTSGSGKPGSSEGSTKDIVLTQSPASLAVSLGDRATINCRASESVSVIGAHLIHWYQQKPGQPPKLLIYLASNLETGVPARFSGSGSGTDFTLTISSLQAEDAAIYYCLQSRIFPRTFGQGTKLEIKGSTSGSGKPGSSEGSTKGQVQLVQSGSELKKPGASVKVSCKASGYTFTDYSIQWVRQAPGQGLEWMGWIQTETREPAYAYDFRGRFVFSLDTSVSTAYLQISSLKAEDTAVYYCALDYSYAMDYWGQGTLVTVSS
For B1, the percent of H929 cells stained ("efficiency") is 84.8%.
